Measured values published in US5480970A, “Metal chelators” (Resolution Pharmaceuticals, priority 1993, dated 1996).
Side-chain parts run from the residue outwards. [ ]: non-standard residue; d: D form. The star is where a group is joined. Picolinoyl = O=C(c1ccccn1)*; Nle = CCCC[C@H](N)C(=O)O; Chel = not defined here; Acm = CC(=O)NC*; For = O=C*

What was measured:
neutrophil receptors = experiment: Neutrophil binding assay, competition with tritiated fMLP; conditions: competition with 15 nM tritiated fMLP, 10^6 rat neutrophils, 1 hour room temperature
Method: Rat peripheral neutrophils were prepared for binding assay as follows: blood was obtained by cardiac puncture and anticoagulated with acid- citrate dextrose (ACD) (10%). Red blood cells were removed by sedimentation on hydroxyethyl cellulose (1.1%) for 30 min at room temperature and leukocyte-rich supernatant layered onto 65% percol. […] The remaining neutrophils were resuspended in Hanks Buffered Salt Solution (HBSS) to the desired concentration. Final neutrophil preparation consisted of cells pooled from up to 10 animals, >90% neutrophils and >95% viable by Trypan Blue exclusion.
Binding affinity of the test peptides was assessed by competing off a constant concentration of tritiated fMLP of known affinity for neutrophil receptors. 10^6 neutrophils were added to polypropylene plates containing 15 nM tritiated fMLP and varying concentrations of unlabelled test peptides in a final volume of 150 μL HBSS. […] Filters were then placed in 6 ml scintillation vials, 5 ml of scintillation fluid added (Ecolume) and vials counted using a liquid scintillation counter. […] Specific binding was the total binding less non-specific binding which was the amount of residual radioactivity bound in the presence of 10 μM unlabelled fMLP.

[1] = tested on: inflamed muscle (left leg), E. coli; experiment: In vivo uptake of Tc-99m chelates in inflamed vs non-inflamed muscle; parameters: species or system male Wistar rats; conditions: Inflam agent E. coli; for Inflam muscle / Uninfl muscle: time (min): RP-063 30, RP-056 45, IgG 120, others not given; for Infl:Uninfl: ratio inflamed to uninflamed muscle, time (min): RP-063 30, RP-056 45, IgG 120
Method: (§1) Rat inflammation studies were performed as follows. 2 male Wistar rats (Charles River, 150-200 g) were injected intramuscularly with zymosan, a yeast cell wall preparation (5 mg) or virulent E. coli (ATCC 25922, 0.1 ml of 0.5×10^9 organisms/ml) suspension into their left hindlegs 24 hours before imaging. Focal inflammation in the leg was visually detectable after 1 day. 1 mg (ca. 0.7 μMol) of the chelator was dissolved in 50 μL of dimethylsulfoxide and added to an ethanol-water mixture (1:1, 200 μL). An aliquot of Tc-99m tartarate (ca. 400 MBq) was added and transchelation allowed to proceed for 20 min. at 100° C. The Tc-99m chelate was purified by elution through a Sep Pak cartridge. The purified tracer solution was further diluted with saline to prepare an injectable (200 μL) containing about 100 μCi (3.7 MBq) of activity.
(§2) The rats were anaesthetized with somnitol (40 to 50 mg/kg), and the Tc-99m chelate solution (200 μL) was injected intravenously via the tail vein. Serial whole-body scintigrams were acquired for the first 5 minutes. Subsequently, further images were obtained at 30, 60, and 120 minutes. The rats were then killed with anaesthesia and samples of organs, urine, blood, inflamed muscle (left leg) and non-inflamed muscle (right leg) were weighted and counted in either a well-type gamma counter or in a gamma dose calibrator. The dose calculations were made based on assumption that the rat weighed 200 g and that the blood volume constituted 8% of body weight. Results are averages for two rats and are corrected for the residual dose in the tail.

[2] = In vivo biodistribution of Tc-99m chelates in rat inflammation studies; parameters: species or system male Wistar rats; conditions: for In vivo Distribution blood: Tc-99m chelate i.v. tail vein, average of two rats, time (min): RP-022 90, RP-043 88, RP-050 109, RP-063 30, RP-065 30, IgG 120, RP-049 not given; for In vivo Distribution GI tract / In vivo Distribution liver / In vivo Distribution kidney / In vivo Distribution urine: Tc-99m chelate i.v.; for In vivo Distribution GI tract / In vivo Distribution liver: time (min): RP-022 90, RP-043 88, RP-050 109, RP-063 30; for In vivo Distribution kidney: time (min): RP-022 90, RP-043 88, RP-050 109, RP-063 30, RP-049 not given; for In vivo Distribution urine: time (min): RP-022 90, RP-043 88, RP-050 109, RP-063 30, RP-065 30
Method: as §1, §2

(Pic-Gly-Cys(Acm)-Gly)-ε-NH-Lys(-Asp-Gly-OH)-Lys-Tyr-Nleu-Phe-Leu- Nleu-for (For-[Nle]LF[Nle]YKK([Gly-Cys(Acm)-Gly-Picolinoyl])DG-OH) [RP-056, ID No. 13]
binding affinity for neutrophil receptors (neutrophil receptors): greater binding affinity for neutrophil receptors than native fMLP | Inflam muscle [1]: 0.143 % per gm | Uninfl muscle [1]: 0.041 % per gm | Infl:Uninfl [1]: 3.52

(Pic-Gly-Cys(Acm)-Gly)-εNH-Lys(-Gly-OH)-Tyr-Nleu-Phe-Leu-Nleu-for (For-[Nle]LF[Nle]YK([Gly-Cys(Acm)-Gly-Picolinoyl])G-OH) [RP-050, ID NO: 12]
binding affinity for neutrophil receptors (neutrophil receptors): greater binding affinity for neutrophil receptors than native fMLP | In vivo Distribution blood [2]: 3.436 % per organ | In vivo Distribution GI tract [2]: 25.777 % per organ | In vivo Distribution liver [2]: 20.866 % per organ | In vivo Distribution kidney [2]: 11.470 % per organ | In vivo Distribution urine [2]: 14.050 % per organ | Infl:Uninfl [1]: 3.17

(Pic-Gly-Cys-Gly)-εNH-Lys(-Gly-OH)-Tyr-Nleu-Phe-Leu-Nleu-for (For-[Nle]LF[Nle]YK([Gly-Cys-Gly-Picolinoyl])G-OH; SMILES CCCC[C@H](NC=O)C(=O)N[C@@H](CC(C)C)C(=O)N[C@@H](Cc1ccccc1)C(=O)N[C@@H](CCCC)C(=O)N[C@@H](Cc1ccc(O)cc1)C(=O)N[C@@H](CCCCNC(=O)CNC(=O)[C@H](CS)NC(=O)CNC(=O)c1ccccn1)C(=O)NCC(=O)O) [RP-022, ID NO: 11]
In vivo Distribution blood [2]: 3.036 % per organ | In vivo Distribution GI tract [2]: 41.285 % per organ | In vivo Distribution liver [2]: 35.26 % per organ | In vivo Distribution kidney [2]: 18.82 % per organ | In vivo Distribution urine [2]: 8.400 % per organ

(Pic-Ser-Cys(Acm)-Gly)-Lys-Pro-Pro-Arg-OH (Picolinoyl-SC(Acm)GKPPR-OH; SMILES CC(=O)NCSC[C@H](NC(=O)[C@H](CO)NC(=O)c1ccccn1)C(=O)NCC(=O)N[C@@H](CCCCN)C(=O)N1CCC[C@H]1C(=O)N1CCC[C@H]1C(=O)N[C@@H](CCCNC(=N)N)C(=O)O) [RP-065, ID NO: 10]
In vivo Distribution blood [2]: 3.520 % per organ | In vivo Distribution urine [2]: 53.000 % per organ | Inflam muscle [1]: 0.125 % per gm | Uninfl muscle [1]: 0.059 % per gm | Infl:Uninfl [1]: 2.1

(Pic-Ser-Cys(Acm)-Gly)-Thr-Lys-Pro-Pro-Arg-OH (Picolinoyl-SC(Acm)GTKPPR-OH; SMILES CC(=O)NCSC[C@H](NC(=O)[C@H](CO)NC(=O)c1ccccn1)C(=O)NCC(=O)N[C@H](C(=O)N[C@@H](CCCCN)C(=O)N1CCC[C@H]1C(=O)N1CCC[C@H]1C(=O)N[C@@H](CCCNC(=N)N)C(=O)O)[C@@H](C)O) [RP-063, ID NO: 9]
In vivo Distribution blood [2]: 6.370 % per organ | In vivo Distribution GI tract [2]: 5.080 % per organ | In vivo Distribution liver [2]: 3.050 % per organ | In vivo Distribution kidney [2]: 4.170 % per organ | In vivo Distribution urine [2]: 44.710 % per organ | Inflam muscle [1]: 0.180 % per gm | Uninfl muscle [1]: 0.050 % per gm | Infl:Uninfl [1]: 3.62

Chel-Gly-Cys(Acm)-Gly-OH (reading uncertain; also: printed as Chel-Gly-Cys(Acm)-Gly-OH) [RP-043, ID NO: 6]
In vivo Distribution blood [2]: 1.016 % per organ | In vivo Distribution GI tract [2]: 52.619 % per organ | In vivo Distribution liver [2]: 0.953 % per organ | In vivo Distribution kidney [2]: 4.359 % per organ | In vivo Distribution urine [2]: 33.950 % per organ

Pic-Gly-Cys(Acm)-Gly-OH (Picolinoyl-Gly-Cys(Acm)-Gly-OH; SMILES CC(=O)NCSC[C@H](NC(=O)CNC(=O)c1ccccn1)C(=O)NCC(=O)O) [RP-049, ID NO: 8]
In vivo Distribution blood [2]: 0.187 % per organ | In vivo Distribution kidney [2]: 21.700 % per organ | Inflam muscle [1]: 0.077 % per gm | Uninfl muscle [1]: 0.019 % per gm | Infl:Uninfl [1]: 4.24
